Source: paper PMC4601532 (Science (New York, N.Y.), 2015)

T1: Vps15, subunit of complex II (Saccharomyces cerevisiae, UniProt P22219 1-1454)
T1 sequence: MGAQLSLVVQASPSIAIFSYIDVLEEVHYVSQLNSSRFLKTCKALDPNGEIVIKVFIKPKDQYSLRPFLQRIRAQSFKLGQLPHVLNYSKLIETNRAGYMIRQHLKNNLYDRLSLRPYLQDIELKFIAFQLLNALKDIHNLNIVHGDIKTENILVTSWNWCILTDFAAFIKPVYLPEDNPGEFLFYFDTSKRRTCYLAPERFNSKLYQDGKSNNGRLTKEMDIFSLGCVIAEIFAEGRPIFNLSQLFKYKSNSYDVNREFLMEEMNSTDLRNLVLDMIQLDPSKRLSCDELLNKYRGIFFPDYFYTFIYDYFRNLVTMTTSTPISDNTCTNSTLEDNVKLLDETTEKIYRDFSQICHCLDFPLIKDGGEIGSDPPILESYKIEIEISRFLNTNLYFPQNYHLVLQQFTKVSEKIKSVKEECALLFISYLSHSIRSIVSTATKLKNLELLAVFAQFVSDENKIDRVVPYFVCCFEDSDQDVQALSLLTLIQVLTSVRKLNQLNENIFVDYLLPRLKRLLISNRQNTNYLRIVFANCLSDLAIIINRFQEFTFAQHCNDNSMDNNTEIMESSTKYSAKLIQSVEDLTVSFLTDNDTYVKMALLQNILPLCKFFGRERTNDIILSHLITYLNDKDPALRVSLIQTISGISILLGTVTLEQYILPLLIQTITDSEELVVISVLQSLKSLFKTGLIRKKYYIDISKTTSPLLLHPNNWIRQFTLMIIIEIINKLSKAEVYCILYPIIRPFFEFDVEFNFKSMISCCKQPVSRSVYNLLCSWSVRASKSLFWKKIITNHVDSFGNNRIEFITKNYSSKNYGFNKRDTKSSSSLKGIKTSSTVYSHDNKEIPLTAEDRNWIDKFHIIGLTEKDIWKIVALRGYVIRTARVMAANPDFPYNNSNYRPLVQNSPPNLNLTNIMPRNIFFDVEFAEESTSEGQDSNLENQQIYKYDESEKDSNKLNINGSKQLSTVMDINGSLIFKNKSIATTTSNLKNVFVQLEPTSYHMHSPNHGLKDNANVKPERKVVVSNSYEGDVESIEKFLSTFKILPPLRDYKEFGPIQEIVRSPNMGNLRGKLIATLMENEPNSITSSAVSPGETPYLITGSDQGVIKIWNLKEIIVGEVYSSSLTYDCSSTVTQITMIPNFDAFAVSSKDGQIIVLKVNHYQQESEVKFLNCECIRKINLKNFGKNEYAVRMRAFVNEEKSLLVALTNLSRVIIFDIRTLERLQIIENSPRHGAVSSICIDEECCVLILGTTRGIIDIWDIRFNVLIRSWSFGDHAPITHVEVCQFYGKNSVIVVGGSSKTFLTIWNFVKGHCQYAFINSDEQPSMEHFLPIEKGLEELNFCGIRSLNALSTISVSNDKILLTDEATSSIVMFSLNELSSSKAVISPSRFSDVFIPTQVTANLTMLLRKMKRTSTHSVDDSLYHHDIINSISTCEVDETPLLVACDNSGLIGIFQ

B1: Vps30/Atg6, subunit of complex II (natural protein)
chain: MKCQTCHLPLQLDPSLEGLSLTQRNLLLSNNSIITATNENVISNKGIEAADNCGPQIPKERLRRLGEIQNIKDLNLKDDKLITDSFVFLNHDDDDNANITSNSREDQRYGNANGNDNKKANSDTSDGTSTFRDHDEEEQEATDEDENQQIQLNSKTLSTQVNAMTNVFNILSSQTNIDFPICQDCCNILINRLKSEYDDAIKERDTYAQFLSKLESQNKEISESNKEKQYSHNLSEKENLKKEEERLLDQLLRLEMTDDDLDGELVRLQEKKVQLENEKLQKLSDQNLMDLNNIQFNKNLQSLKLQYELSLNQLDKLRKINIFNATFKISHSGPFATINGLRLGSIPESVVPWKEINAALGQLILLLATINKNLKINLVDYELQPMGSFSKIKKRMVNSVEYNNSTTNAPGDWLILPVYYDENFNLGRIFRKETKFDKSLETTLEIISEITRQLSTIASSYSSQTLTTSQDESSMNNANDVENSTSILELPYIMNKDKINGLSVKLHGSSPNLEWTTAMKFLLTNVKWLLAFSSNLLSKSITLSPTVNYNDKTISGN
B2: Vps38, subunit of complex II (natural protein)
chain: MKRFLLSRRQRHLRMICFHNISLFRANGDSKLIKEYGDGFIPCFFILESIRGELLYVSEVQSGSLRKLSFQELPKLTGASTMIVLKLVGLVPSDILCTISSDKNGIIDDKWCVLCTYTIDLNKLQPINEDTVLITGTNAPVLDLIDGSYTLAAEKIKPLKGLVSSHKRNISQVKIKFSLAYSSLLKLNKLLEYSSQVHEEINEISSKIEDDFLSLKNQNHWYMRTVQKSIETLEKEVLQRKKSKKNIEMAQLESNDTINHSKTELSLMSQDESINDDYGSIYSRFVQIKDRLDQLRFKKLYQLIGIFHSTDLFNSDRGYIYFEKPSSVNDVINRLKLKPLNIEILLRQAGESTKHREYVNSQLGYYLLFLHLTAIQIFKAPLPYRLMYYGSTSVIDSQYPLYFTDQMISKHQAKLIKAIHYFNADILQFKQILENYRPT
B3: Vps34 (vacuolar protein sorting 34), subunit of complex II (enzyme)
chain: LNNITFCVSQDLDVPLKVKIKSLEGHKPLLKPSQKILNPELMLIGSNVFPSSDLIVSLQVFDKERNRNLTLPIYTPYIPFRNSRTWDYWLTLPIRIKQLTFSSHLRIILWEYNGSKQIPFFNLETSIFNLKDCTLKRGFESLKFRYDVIDHCEVVTDNKDQENLNKYFQGEFTRLPWLDEITISKLRKQRENRTWPQGTFVLNLEFPMLELPVVFIEREIMNTQMNIPTLKNNPGLSTDLREPNRNDPQIKISLGDKYHSTLKFYDPDQPNNDPIEEKYRRLERASKNANLDKQVKPDIKKRDYLNKIINYPPGTKLTAHEKGSIWKYRYYLMNNKKALTKLLQSTNLREESERVEVLELMDSWAEIDIDDALELLGSTFKNLSVRSYAVNRLKKASDKELELYLLQLVEAVCFENLSTFSDKSNSEFTIVDAVSSQKLSGDSMLLSTSHANQKLLKSISSESETSGTESLPIVISPLAEFLIRRALVNPRLGSFFYWYLKSESEDKPYLDQILSSFWSRLDKKSRNILNDQVRLINVLRECCETIKRLKDTTAKKMELLVHLLETKVRPLVKVRPIALPLDPDVLICDVCPETSKVFKSSLSPLKITFKTTLNQPYHLMFKVGDDLRQDQLVVQIISLMNELLKNENVDLKLTPYKILATGPQEGAIEFIPNDTLASILSKYHGILGYLKLHYPDENATLGVQGWVLDNFVKSCAGYCVITYILGVGDRHLDNLLVTPDGHFFHADFGYILGQDPKPFPPLMKLPPQIIEAFGGAESSNYDKFRSYCFVAYSILRRNAGLILNLFELMKTSNIPDIRIDPNGAILRVRERFNLNMSEEDATVHFQNLINDSVNALLPIVIDHLHNLAQYWRT

Columns and labels:
[1] = target: Vps38-C2 with CC1 region (Saccharomyces cerevisiae); assay: SEC-MALS
[2] = target: T1, Vps15, subunit of complex II; assay: SEC-MALS
[3] = target: B2; assay: SEC-MALS
[4] = target: B3; assay: crystal structure
[5] = target: B1; assay: crystal structure
[6] = target: Saccharomyces cerevisiae Vps15/Vps34 heterodimer (Saccharomyces cerevisiae, UniProt P22219;P22543); assay: pull-down
[7] = target: B1; assay: SEC-MALS

Molecule | stoichiometry N [2] | stoichiometry N [3] | binding result [4] | other results
Vps30-NTD with CC1 region (domain or fragment) | – | – | – | stoichiometry N [1]: 1
B1 | 1 | 1 | binds | –
B2 | 1 | – | binds | binding result [5]: binds
Vps30/ZZ-Vps38 heterodimer held on IgG beads (complex) chain 1: MKCQTCHLPLQLDPSLEGLSLTQRNLLLSNNSIITATNENVISNKGIEAADNCGPQIPKERLRRLGEIQNIKDLNLKDDKLITDSFVFLNHDDDDNANITSNSREDQRYGNANGNDNKKANSDTSDGTSTFRDHDEEEQEATDEDENQQIQLNSKTLSTQVNAMTNVFNILSSQTNIDFPICQDCCNILINRLKSEYDDAIKERDTYAQFLSKLESQNKEISESNKEKQYSHNLSEKENLKKEEERLLDQLLRLEMTDDDLDGELVRLQEKKVQLENEKLQKLSDQNLMDLNNIQFNKNLQSLKLQYELSLNQLDKLRKINIFNATFKISHSGPFATINGLRLGSIPESVVPWKEINAALGQLILLLATINKNLKINLVDYELQPMGSFSKIKKRMVNSVEYNNSTTNAPGDWLILPVYYDENFNLGRIFRKETKFDKSLETTLEIISEITRQLSTIASSYSSQTLTTSQDESSMNNANDVENSTSILELPYIMNKDKINGLSVKLHGSSPNLEWTTAMKFLLTNVKWLLAFSSNLLSKSITLSPTVNYNDKTISGN chain 2: MKRFLLSRRQRHLRMICFHNISLFRANGDSKLIKEYGDGFIPCFFILESIRGELLYVSEVQSGSLRKLSFQELPKLTGASTMIVLKLVGLVPSDILCTISSDKNGIIDDKWCVLCTYTIDLNKLQPINEDTVLITGTNAPVLDLIDGSYTLAAEKIKPLKGLVSSHKRNISQVKIKFSLAYSSLLKLNKLLEYSSQVHEEINEISSKIEDDFLSLKNQNHWYMRTVQKSIETLEKEVLQRKKSKKNIEMAQLESNDTINHSKTELSLMSQDESINDDYGSIYSRFVQIKDRLDQLRFKKLYQLIGIFHSTDLFNSDRGYIYFEKPSSVNDVINRLKLKPLNIEILLRQAGESTKHREYVNSQLGYYLLFLHLTAIQIFKAPLPYRLMYYGSTSVIDSQYPLYFTDQMISKHQAKLIKAIHYFNADILQFKQILENYRPT | – | – | – | binding result [6]: binds
B3 | 1 | 1 | – | stoichiometry N [7]: 1
